Assay [1] deals with T1, human EpCAM expressed on cells (human, UniProt P16422 24-314).
T1 construct: whole, on cells; In the debris and exosome assays EpCAM stands on heat-shocked tumour cell debris or on exosomes; also called EpCAM on CHO-EpCAM, JEG, JAR, HT29, BxPC3, MCF7 and MB49-hEpCAM-OVA cells, their debris or exosomes
T1 sequence (looked up): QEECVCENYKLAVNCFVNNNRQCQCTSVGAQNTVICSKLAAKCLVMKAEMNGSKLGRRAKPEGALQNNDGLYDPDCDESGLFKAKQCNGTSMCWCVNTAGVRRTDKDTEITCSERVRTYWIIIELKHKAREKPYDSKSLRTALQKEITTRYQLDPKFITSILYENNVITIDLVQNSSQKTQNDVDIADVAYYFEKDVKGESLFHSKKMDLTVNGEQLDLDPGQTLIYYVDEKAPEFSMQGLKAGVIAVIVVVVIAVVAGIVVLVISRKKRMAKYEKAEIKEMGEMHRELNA
Briefly: flow cytometry, titration of biotinylated antibody on EpCAM-transfected CHO cells, detection with fluorochrome-conjugated streptavidin. An excerpt: FIG. 3. […] Binding of biotinylated antibodies was detected by flow cytometry using fluorochrome-conjugated streptavidin. Results are pooled from two replicates in one representative experiment of two.
The human EpCAM gene was cloned into pcDNA3.1, and the vector was subsequently stably transfected into CHO cells. Control CHO cells were stably transfected with and empty pcDNA3.1 vector. […] Binding of biotinylated antibodies was detected with fluorochrome-conjugated streptavidin and analysed using flow cytometry.

Assay [2] addresses T2, human CD40 expressed on cells (human, UniProt P25942 21-277).
T2 construct: whole, on cells; also called CD40 on primary human B cells, monocytes, monocyte-derived DCs, Raji cells and hCD40tg mouse DCs
Briefly: flow cytometry, titration of biotinylated antibody on human PBMC gated with CD19, CD14, CD3 and CD56, detection with fluorochrome-conjugated streptavidin. An excerpt:
FIG. 5. […] Binding of biotinylated antibodies to different cell populations was detected by flow cytometry using fluorochrome-conjugated streptavidin. Results are pooled from three donors in one representative experiment of two.
Binding of biotinylated antibodies was detected with fluorochrome-conjugated streptavidin and analysed using flow cytometry.

For assay [3], the target named is T3, dimeric antigen EpCAM-Fc (Sino hEpCAM_Fc #10694-H02H) (human, UniProt P16422 24-265).
T3 construct: not shown: Fc part
T3 sequence (looked up): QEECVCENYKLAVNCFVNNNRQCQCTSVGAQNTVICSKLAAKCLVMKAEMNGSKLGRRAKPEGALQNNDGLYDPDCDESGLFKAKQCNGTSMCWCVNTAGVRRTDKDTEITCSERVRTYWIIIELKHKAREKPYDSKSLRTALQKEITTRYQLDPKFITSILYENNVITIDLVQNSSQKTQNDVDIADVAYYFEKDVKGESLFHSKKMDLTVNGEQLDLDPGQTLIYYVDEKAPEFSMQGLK
Briefly: BLI (Octet RED96), Assay 1: bsAb on FAB2G sensors, dimeric EpCAM-Fc in solution, 1:1 fit. On the procedure: (§1) Kinetic measurements were performed using the Octet RED96 platform (ForteBlo).
(§2) BsAb at 1.0 or 1.5 ug/ml where coupled to anti-human Fab-CH1 2nd generation (FAB2G) biosensors (Part no #18-5125 (tray)). Antigens were serially diluted % in 1× Kinetic buffer (ForteBio) to 100 nM, 50 nM, 25 nM, 12.5 nM, 6.25 nM, 3.125 nM, 1.56 nM or 0 nM. The association was followed for 300 seconds and the dissociation in 1× Kinetic buffer for 300 seconds. Sensor tips were regenerated using 10 mM glycine, pH 1.5. Data generated were referenced by subtracting a parallel buffer blank, the baseline was aligned with the y-axis, inter-step correlation by alignment against dissociation was performed and the data were smoothed by a Savitzky-Golay filter in the data analysis software (v.9.0.0.14). The processed data were fitted using a 1:1 Langmuir binding model with X2 as a measurement of fitting accuracy.

For assay [4], the target named is T4, hEpCAM (R&D Systems #9277-EP), monomeric antigen EpCAM-his (human, UniProt P16422 24-265).
T4 construct: Bought reagent; also called human EpCAM; not shown: His tag
T4 sequence (looked up): T3 sequence (looked up)
Briefly: BLI (Octet RED96), Assay 2: bsAb on FAB2G sensors, monomeric EpCAM-his in solution, 1:1 fit. On the procedure: as §1, §2

In assay [5] the target is T4, hEpCAM (R&D Systems #9277-EP), …. Description: Mono ELISA (top frame): plate coated with 0.5 µg/mL hEpCAM, detection with HRP-labelled goat anti-human kappa light chain, luminescence.
Assay [6] concerns the target T3, dimeric antigen EpCAM-Fc (Sino …). Description: BLI (Octet RED96), Assay 3: hEpCAM_Fc coupled to AR2G sensors, bsAb in solution, 1:1 fit. On the procedure:
as §1
Antigen was coupled to Amine reactive Second generation sensors (Dip and Read Amine reactive Second-Generation (AR2G) Biosensors (Part no #18-5092 (tray)) at antigen concentrations of 0.4, 1.5, 0.25 or 0.5 μg/mL. BsAb (serially diluted % in 1× Kinetic buffer (ForteBio) with start concentrations of 20, 15, 10 or 25 nM) were analysed for binding to antigen-coupled sensors. The association was followed for 300 seconds and the dissociation in 1× Kinetic buffer for 300 seconds. Sensor tips were regenerated using 10 mM glycine, pH 2.2. Data generated were referenced by subtracting a parallel buffer blank, the baseline was aligned with the y-axis, inter-step correlation by alignment against dissociation was performed and the data were smoothed by a Savitzky-Golay filter in the data analysis software (v.9.0.0.14). The processed data were fitted using a 1:1 Langmuir binding model with X2 as a measurement of fitting accuracy.
A general note: In BLI a coated tip is dipped into the sample, and binding shifts an interference pattern.

The results in this text go back to US20220064325A1 (ALLIGATOR BIOSCIENCE, published 2022).

A word on the Kd: it is the equilibrium constant for the complex coming apart. Higher therefore signals weaker binding. What is called koff is a measure of how fast the partners let go of each other. A lower koff goes with a long-lived complex. In general, kon refers to the rate constant with which the complex forms. The EC50 (read off the curve) is the concentration giving half of the maximal effect.

T2 sequence (P25942 21-277): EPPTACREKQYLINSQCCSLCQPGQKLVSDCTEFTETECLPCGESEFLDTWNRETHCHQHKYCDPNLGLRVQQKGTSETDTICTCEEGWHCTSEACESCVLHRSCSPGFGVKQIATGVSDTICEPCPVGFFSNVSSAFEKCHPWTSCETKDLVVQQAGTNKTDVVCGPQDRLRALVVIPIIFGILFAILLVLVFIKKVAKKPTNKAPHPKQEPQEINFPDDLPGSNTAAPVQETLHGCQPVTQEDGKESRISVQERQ

B1: 1132.m2 (antibody, V domains shown)
VH: EVQLLESGGGLVQPGGSLRLSCAASGFTFSSYAMSWVRQAPGKGLEWVSGIGSYGGGTYYADSVKGRFTISRDNSKNTLYLQMNSLRAEDTAVYYCARYVNFGMDYWGQGTLVTVSS
VL: DIQMTQSPSSLSASVGDRVTITCRASQSISSYLNWYQQKPGKAPKLLIYAASSLQSGVPSRFSGSGSGTDFTLTISSLQPEDFATYYCQQYGRNPPTFGQGTKLEIK
notes: Full chains are not tied to this name; also called LALA-mutated agonistic monoclonal CD40 antibody
As for B1, the figures for the binding result in assay [1] and in assay [2] were “no binding (tested: about 300 nM)” and “binds”, respectively.

B2: 1132-005025.M (bispecific antibody)
VH: B1 VH
VL: B1 VL
scFv: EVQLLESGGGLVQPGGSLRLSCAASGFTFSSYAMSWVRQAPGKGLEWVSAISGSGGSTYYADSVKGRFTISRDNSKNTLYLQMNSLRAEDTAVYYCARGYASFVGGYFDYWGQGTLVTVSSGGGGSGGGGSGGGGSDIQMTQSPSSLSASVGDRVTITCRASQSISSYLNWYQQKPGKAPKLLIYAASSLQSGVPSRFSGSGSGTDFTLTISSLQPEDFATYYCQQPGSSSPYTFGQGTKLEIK
notes: also called CD40-EpCAM bispecific antibody in the Morrison format
In assay [3], B2 gave a dissociation constant (Kd) of 4 nM, a koff of 0.001 s⁻¹ and a kon of 300000 M⁻¹ s⁻¹. In assay [4], this molecule came in with a dissociation constant (Kd) of 300 nM, an off-rate (koff) of 0.01 s⁻¹ and an association rate constant (kon) of 30000 M⁻¹ s⁻¹. Further, in assay [5], the “EC50 (read off the curve)” value is roughly 0.5 nM.

B3: 1132-3174.M (bispecific antibody, V domains shown)
VH 1: B1 VH
VL 1: B1 VL
VH 2: EVQLLEQSGAELVRPGTSVKISCKASGYAFTNYWLGWVKQRPGHGLEWIGDIFPGSGNIHYNEKFKGKATLTADKSSSTAYMQLSSLTFEDSAVYFCARLRNWDEPMDYWGQGTTVTVSS
VL 2: ELVMTQSPSSLTVTAGEKVTMSCKSSQSLLNSGNQKNYLTWYQQKPGQPPKLLIYWASTRESGVPDRFTGSGSGTDFTLTISSVQAEDLAVYYCQNDYSYPLTFGAGTKLEIK
notes: as for B2
In assay [3], B3 gave an equilibrium dissociation constant (Kd) of 0.5 nM, a koff of 8e-05 s⁻¹ and an on-rate (kon) of 200000 M⁻¹ s⁻¹. In assay [6], this molecule yielded a Kd of 10 nM, a koff of 0.002 s⁻¹ and a kon of 200000 M⁻¹ s⁻¹. In assay [4], this molecule gave a Kd of 500 nM, an off-rate (koff) of 0.01 s⁻¹ and an association rate constant (kon) of 20000 M⁻¹ s⁻¹.

B4: 1132-005038.M (bispecific antibody)
VH: B1 VH
VL: B1 VL
scFv: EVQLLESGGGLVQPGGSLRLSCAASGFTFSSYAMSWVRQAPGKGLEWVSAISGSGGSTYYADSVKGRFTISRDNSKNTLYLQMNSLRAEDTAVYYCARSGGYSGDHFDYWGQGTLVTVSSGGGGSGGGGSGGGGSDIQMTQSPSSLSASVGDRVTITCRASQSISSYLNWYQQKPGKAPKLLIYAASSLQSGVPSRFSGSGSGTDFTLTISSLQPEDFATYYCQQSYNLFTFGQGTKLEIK
notes: as for B2
For B4, in assay [3], the dissociation constant Kd amounted to 6 nM, the koff came out at 0.002 s⁻¹ and the kon was 300000 M⁻¹ s⁻¹. For the same molecule, in assay [4], binding was characterised by a dissociation constant (Kd) of 1000 nM, the koff is 0.01 s⁻¹ and the kon was found to be 8000 M⁻¹ s⁻¹. Besides, the concentration giving a half-maximal response (EC50 (read off the curve)) in assay [5] was roughly 1 nM.

B5: 1132-3188.M (bispecific antibody, V domains shown)
VH 1: B1 VH
VL 1: B1 VL
VH 2: EVQLVQSGPGLVQPGGSVRISCAASGYTFTNYGMNWVKQAPGKGLEWMGWINTYTGESTYADSFKGRFTFSLDTSASAAYLQINSLRAEDTAVYYCARFAIKGDYWGQGTLLTVSS
VL 2: DIQMTQSPSSLSASVGDRVTITCRSTKSLLHSNGITYLYWYQQKPGKAPKLLIYQMSNLASGVPSRFSSSGSGTDFTLTISSLQPEDFATYYCAQNLEIPRTFGQGTKVELK
notes: also called CD40-EpCAM bispecific antibody in the Morrison format; 3188 = 4D5MOCB = BM1
In assay [3], B5 yielded a Kd of less than 0.001 nM, an off-rate constant (koff) of less than 1e-07 s⁻¹ and a kon of 300000 M⁻¹ s⁻¹. Moreover, in assay [4], the equilibrium dissociation constant (Kd) was 30 nM, the koff came out at 0.004 s⁻¹ and the on-rate (kon) was found to be 100000 M⁻¹ s⁻¹. Besides, the “EC50 (read off the curve)” value in assay [5] is roughly 0.4 nM.
